Assay results published in the supplement of paper PMC10899765.

test system: MCF10A; assay: 5+ nucleoli phenotype percent effect, hitpick validation (relative to siNT 0% and siKIF11 100%); higher = more cells with five or more nucleoli; settings: 20 nM; 72 h
Protocol: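 Primary screen hits (microRNA mimics) were re-picked and rescreened for nucleolar number in MCF10A cells (hitpick validation; percent effect relative to the siNT and siNOL11/siKIF11 controls). A secondary screen measured nucleolar rRNA biogenesis inhibition: after 72 h of transfection at 20 nM, cells were labelled 1 h with 1 mM 5-EU and nucleolar 5-EU signal was quantified, normalised to siNT (0%) and siPOLR1A (100%). Means are over n=5 (MCF10A) or n=2 (RPE-1, HeLa) biological replicates.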

Going from AAAAGGCAUUGUGGUUUUUG [hsa-miR-548an] to CUGGCGGAGCCCAUUCCAUGCCA [hsa-miR-4730], the “5+ nucleoli phenotype percent effect” value falls from -8.86% to -12.7%.

Compared with AAGCAGCUGCCUCUGAGGC [hsa-miR-646], UGUGUGGAUCCUGGAGGAGGCA [hsa-miR-3911] is higher in “5+ nucleoli phenotype percent effect” value: -14.4% for the first, -10.6% for the second.

First: CACCAGGGCAGAGCAGGGCUGA [hsa-miR-6753-5p]
Second: UCUCCCUUGAGGGCACUUU [hsa-miR-4287]
The “5+ nucleoli phenotype percent effect” value of the first is lower: -17.4% for the first, 70% for the second.

First: GGCUGGGUGCUCUUGUGCAGU [hsa-miR-5589-5p]
Second: CGCGCCGGGCCCGGGUU [hsa-miR-3195]
The “5+ nucleoli phenotype percent effect” value of the first is higher: 21.5% for the first, -15.6% for the second.

Going from UCUGCAGGGUUUGCUUUGAG [hsa-miR-1205] to CUCGGCGCGGGGCGCGGGCUCC [hsa-miR-1469], the “5+ nucleoli phenotype percent effect” value falls from -13.7% to -13.8%.

Compared with “UUUGGGACUGAUCUUGAUGUCU [hsa-miR-3913-5p]”, “UGAAUGGUAAAGCGAUGUCACA [hsa-miR-4790-3p]” is lower in “5+ nucleoli phenotype percent effect” value: 61% for the first, -2.28% for the second.

Compared with “CAAUGGCACAAACUCAUUCUUGA [hsa-miR-5197-5p]”, CAGCCUCUGCCCUUGGCCUCC [hsa-miR-6877-3p] is lower in “5+ nucleoli phenotype percent effect” value: 20.5% for the first, -16.2% for the second.

Compared with ACUGGGCUUGGAGUCAGAAG [hsa-miR-378g], “GAGCAGGCGAGGCUGGGCUGAA [hsa-miR-4690-5p]” is lower in “5+ nucleoli phenotype percent effect” value: -9.08% for the first, -12.8% for the second.

Going from GGCGACAAAACGAGACCCUGUC [hsa-miR-1273c] to “AGGAGCUAUCCACUCCAGGUGUCC [hsa-miR-6500-5p]”, the “5+ nucleoli phenotype percent effect” value rises from -8.2% to 5.46%.

Going from UUGCACUUGUCUCAGUGA [hsa-miR-4325] to GUGUGUGGAAAUGCUUCUGC [hsa-miR-147a], the “5+ nucleoli phenotype percent effect” value rises from 3.45% to 9.08%.

First: CUCUCCUCCCGGCUUC [hsa-miR-4279]
Second: UUCUCCCACUACCAGGCUCCCA [hsa-miR-4713-5p]
The “5+ nucleoli phenotype percent effect” value of the first is lower: -6.3% for the first, 43% for the second.

Going from UCAUAGCCCUGUACAAUGCUGCU [hsa-miR-103b] to CUAGGGGGUUUGCCCUUG [hsa-miR-4278], the “5+ nucleoli phenotype percent effect” value rises from -15% to -14.3%.

Compared with CCCCACCUCCUCUCUCCUCAG [hsa-miR-1224-3p], GGCUCCUCCUCUCAGGAUGUG [hsa-miR-4268] is higher in “5+ nucleoli phenotype percent effect” value: 28.1% for the first, 51.9% for the second.

AGGUAUUGCCACCCUUUCUAGU [hsa-miR-5681b] was tested, and the “5+ nucleoli phenotype percent effect” value was -3.11%.

test system: MCF10A; assay: 5+ nucleoli phenotype percent effect (relative to siNT 0% and siKIF11 100%); higher = more cells with five or more nucleoli; settings: 20 nM; 72 h
Protocol: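 After 72 h, cells were fixed and stained with Hoechst and anti-fibrillarin, and nucleoli per nucleus were counted with CellProfiler. Values are plate-adjusted percent effect for the one-nucleolus and 5+ nucleoli phenotypes, normalised to siNT (0%) and to the positive controls siNOL11 or siKIF11 (100%), as the mean of biological triplicates. Percent viability is the nuclei count relative to siNT.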

Going from UGGAGUCCAGGAAUCUGCAUUUU [hsa-miR-1289] to GAGCAAUGUAGGUAGACUGUUU [hsa-miR-3908], the “5+ nucleoli phenotype percent effect” value rises from -51.8% to -34.4%.

First: GAGGGCAUGCGCACUUUGUCC [hsa-miR-4761-3p]
Second: UGGUCUGCAAAGAGAUGACUGU [hsa-miR-4527]
The “5+ nucleoli phenotype percent effect” value of the first is higher: -23.9% for the first, -39.4% for the second.

First: AAGGAGAUGCUCAGGCAGAU [hsa-miR-6888-5p]
Second: AAAAGGCAUUGUGGUUUUUG [hsa-miR-548an]
The “5+ nucleoli phenotype percent effect” value of the first is lower: -54% for the first, -52.6% for the second.

First: CUGGCGGAGCCCAUUCCAUGCCA [hsa-miR-4730]
Second: AAGCAGCUGCCUCUGAGGC [hsa-miR-646]
The “5+ nucleoli phenotype percent effect” value of the first is lower: -43.2% for the first, -42.6% for the second.

Compared with UGUGUGGAUCCUGGAGGAGGCA [hsa-miR-3911], “CACCAGGGCAGAGCAGGGCUGA [hsa-miR-6753-5p]” is higher in “5+ nucleoli phenotype percent effect” value: -47% for the first, -40% for the second.

Going from UCUCCCUUGAGGGCACUUU [hsa-miR-4287] to GGCUGGGUGCUCUUGUGCAGU [hsa-miR-5589-5p], the “5+ nucleoli phenotype percent effect” value falls from 200% to -4.52%.

Going from CGCGCCGGGCCCGGGUU [hsa-miR-3195] to UCUGCAGGGUUUGCUUUGAG [hsa-miR-1205], the “5+ nucleoli phenotype percent effect” value falls from -31.1% to -53.7%.

Going from CUCGGCGCGGGGCGCGGGCUCC [hsa-miR-1469] to “UUUGGGACUGAUCUUGAUGUCU [hsa-miR-3913-5p]”, the “5+ nucleoli phenotype percent effect” value rises from -35.5% to 132%.

Going from “UGAAUGGUAAAGCGAUGUCACA [hsa-miR-4790-3p]” to “CAAUGGCACAAACUCAUUCUUGA [hsa-miR-5197-5p]”, the “5+ nucleoli phenotype percent effect” value rises from -42.5% to -38.9%.

First: CAGCCUCUGCCCUUGGCCUCC [hsa-miR-6877-3p]
Second: ACUGGGCUUGGAGUCAGAAG [hsa-miR-378g]
The “5+ nucleoli phenotype percent effect” value of the first is lower: -44.7% for the first, -34.6% for the second.

First: GAGCAGGCGAGGCUGGGCUGAA [hsa-miR-4690-5p]
Second: GGCGACAAAACGAGACCCUGUC [hsa-miR-1273c]
The “5+ nucleoli phenotype percent effect” value of the first is lower: -41.1% for the first, -32.6% for the second.

Compared with “AGGAGCUAUCCACUCCAGGUGUCC [hsa-miR-6500-5p]”, UUGCACUUGUCUCAGUGA [hsa-miR-4325] is higher in “5+ nucleoli phenotype percent effect” value: -33% for the first, -30.4% for the second.

First: GUGUGUGGAAAUGCUUCUGC [hsa-miR-147a]
Second: CUCUCCUCCCGGCUUC [hsa-miR-4279]
The “5+ nucleoli phenotype percent effect” value of the first is higher: -15.3% for the first, -34.9% for the second.

Going from “UUCUCCCACUACCAGGCUCCCA [hsa-miR-4713-5p]” to UCAUAGCCCUGUACAAUGCUGCU [hsa-miR-103b], the “5+ nucleoli phenotype percent effect” value falls from 95.9% to -32.5%.

Compared with CUAGGGGGUUUGCCCUUG [hsa-miR-4278], CCCCACCUCCUCUCUCCUCAG [hsa-miR-1224-3p] is higher in “5+ nucleoli phenotype percent effect” value: -35.5% for the first, 97.2% for the second.

Compared with GGCUCCUCCUCUCAGGAUGUG [hsa-miR-4268], AGGUAUUGCCACCCUUUCUAGU [hsa-miR-5681b] is lower in “5+ nucleoli phenotype percent effect” value: 82.4% for the first, -35.5% for the second.

Compared with “GCCCCGGCGCGGGCGGGUUCUGG [hsa-miR-4707-5p]”, GUAGGUGACAGUCAGGGGCGG [hsa-miR-6800-5p] is lower in “5+ nucleoli phenotype percent effect” value: 42.2% for the first, -0.87% for the second.

Going from CUCACUGAACAAUGAAUGCAA [hsa-miR-181b-3p] to CUCUAGAGGGAAGCGCUUUCUG [hsa-miR-522-5p], the “5+ nucleoli phenotype percent effect” value falls from 22% to 0.209%.

Compared with AAAGACAUAGGAUAGAGUCACCUC [hsa-miR-641], “AAAAUGGUGCCCUAGUGACUACA [hsa-miR-224-3p]” is lower in “5+ nucleoli phenotype percent effect” value: 1.49% for the first, -15% for the second.

First: AGUGGGGUGGGACCCAGCUGUU [hsa-miR-6742-5p]
Second: GUCCCUGAGUGUAUGUGGUG [hsa-miR-670]
The “5+ nucleoli phenotype percent effect” value of the first is lower: -35.4% for the first, 48% for the second.

Going from UAACAAACACCUGUAAAACAGC [hsa-miR-5688] to AGCCCCCUGGCCCCAAACCC [hsa-miR-4313], the “5+ nucleoli phenotype percent effect” value falls from 22.5% to 6.68%.

In the case of “UGGCGGGGGUAGAGCUGGCUGC [hsa-miR-6787-5p]”, the “5+ nucleoli phenotype percent effect” value is reported as -19.2%.
